Test results published in US20080113421A1, “Stabilizing proteins against denaturation and inactivation by charged detergents using chemical modifications, including modifications that increase net charge” (President and Fellows of Harvard College, priority 2006, published 2008).
One block for each compound: values may come before it.

Assays:
Format in all cases: physicochemical
[1] = Denaturation of BCA charge ladders in 3 mM SDS (dialysis cassette) followed by capillary electrophoresis, with transition-state model fit; details: for b coefficient of fit ΔG‡=a+bn+cn^2: 3 mM SDS; for Chydro (hydrophobic contribution to ΔΔG‡): per acylation
Protocol: Denaturation experiments were performed as follows. A charge ladder of BCA (BCA-Acn or BCA-Hexn, 1 mL of 100 micromolar total protein in Tris-Gly buffer) was placed in a dialysis cassette (MW cutoff of 10 kDa). The dialysis cassette was placed in a 1 L bath of 3 mM SDS in Tris-Gly buffer at room temperature. The buffer was changed every 24 h. At regular intervals of time (approximately every half-hour), 100 microliters of the protein solution was removed from the dialysis cassette; ˜7 microliters of that aliquot was diluted 10-fold and the absorbance of the diluted sample at 280 nm (ε280,BcA=57,000 M^−1 cm^−1, the absorption cross section can be assumed to be is unchanged by acylation) was measured to determine the total protein concentration. The aliquot was diluted because the absorbance of the 100 micromolar solution was too high to be read accurately by the ultraviolet spectrometer. This diluted aliquot was discarded. The remainder of the solution was then run on CE. The protein solution, except for the portion diluted for ultraviolet measurement, was returned to the dialysis cassette; the aliquot was outside of the dialysis cassette for ˜5 min.
Capillary electrophoresis experiments were carried out in a Beckman (Fullerton, Calif.) PACE-MDQ system, using a capillary of inner diameter of 50 micrometers of total length of 110.2 cm, 100 cm to the detector. Tris-Gly in D2O was used as the running buffer, and the applied voltage was 30 kV. D2O was used in place of H2O for the electrophoresis buffer because the viscosity of D2O is higher than that of H2O and the higher viscosity minimizes diffusion. Samples were injected using pressure (20 psi) for 30 s. Each sample contained 0.65 mM dimethylformamide as an electrically neutral marker for electroosmotic flow.
The CMC of SDS in the Tris-Gly buffer used in this example was 4.3 mM. 3 mM SDS was chosen for these experiments because this concentration of SDS denatured BCA in an interval of time that was convenient for experimental work using CE. In addition, this concentration of SDS was close to the concentration often used in SDS-PAGE (0.1% or 3.5 mM). 1 mL of a solution of ˜100 micromolar of a charge ladder of BCA, dissolved in Tris-Gly buffer, was placed into a dialysis cassette (molecular weight cutoff of 10 kDa) and the cassette placed in 1 L of Tris-Gly buffer containing 3 mM SDS. The bath was kept at room temperature (˜22° C.) for the duration of the experiment.
At regular intervals of time (approximately every half hour), 100-microliter aliquots of the solutions containing the charge ladder of BCA were removed from the cassette in a bath of 3 mM SDS in Tris-Gly buffer, the total protein concentration in the aliquot was measured using absorbance at 280 nm, and a portion (˜10 nL) of the aliquot injected onto the CE. The unused portions of the aliquots were then returned to the cassette.
Residence time in the detection volume was determined as follows. […] If two proteins with the same absorptivity were present in a sample in equal concentrations, the protein of lower velocity would have a larger measured peak area than the protein of higher velocity. To correct for this experimental bias, the area of each peak was multiplied-by the velocity of the protein (Acorr=Ameasured×LD/tD), where LD is the length of the capillary from the end (where injection occurs) to the detector (100 cm in all of these experiments) and tD is the time it takes for the rung to reach the detector.
Initial differences in concentrations of each rung were as follows. The areas of each of the rungs in the charge ladder were not all equal before denaturation. To measure the fraction of each rung that has denatured at each time, the velocity-corrected area of each rung in the sample was divided by the velocity-corrected area of that rung in the charge ladder run in the absence of SDS.
A comparison of the rates of denaturation follows. […]

[2] = Unfolding (denaturation) of protein in SDS in Tris-Gly buffer, monitored by DNSA fluorescence
Protocol: Monitoring unfolding of BCA and BCA-Ac18 was performed as follows. The proteins (200 nM) were incubated in different concentrations of SDS in Tris-Gly buffer. A 100 microliter aliquot of protein-SDS solution was mixed with 100 microliters of DNSA solution (30 micromolar) with the same concentration of SDS, and measured the intensity of fluorescence (Perkin-Elmer LS50B spectrometer, λex=280 nm, λem=460 nm) as a function of time. The denaturation of BCA was continuously monitored in concentrations of SDS above 4 mM. The rate constants were determined for denaturation by fitting the intensity vs. time data to FU=FUmaxe^−kt+FUmin. Unfolding experiments at 37° C. were performed similarly, with samples stored in a dry bath incubator (Fisher Scientific).
The kinetics of unfolding were determined as follows. The rates of denaturation of BCA and BCA-Ac18 were measured by incubating the protein (200 nM) in solutions of different concentrations of SDS. Immediately prior to the measurement, an aliquot of solution containing protein and SDS was mixed with a solution containing DNSA and the same concentration of SDS; this protocol minimized the possibility that DNSA might stabilize the native conformation of the protein, and influence the rate of its denaturation. When BCA was denatured in concentrations of SDS of 4 mM and higher, DNSA was added to the original, denaturing solution because the rate of denaturation was too fast to follow with manual mixing of aliquots of protein and DNSA. It was observed that DNSA, when present with the protein in the denaturing solution, reduced the rates of denaturation by factors of about 2-10.
FIG. 1 plots the fluorescence of DNSA, normalized to the signal at t=0, as a function of time of incubation of samples of BCA and BCA-Ac18 in various concentrations of SDS. The decrease in the intensity of fluorescence of DNSA, and thus in the amount of folded protein, followed first-order kinetics. Denaturation of proteins with surfactants probably proceeds through intermediates, but when using a marker that is specific to the folded active site of carbonic anhydrase, transitions beyond the initial unfolding of the three-dimensional structure of the protein were not detected.
The tables list the half-lives (t1/2) for denaturation of BCA and BCA-Ac18 at several concentrations of SDS. The denaturation of BCA at 4 mM occurred very rapidly, and data are not shown to avoid overlap with data at 3.5 mM. The error bars represent the difference between the average and the largest and smallest values measured from at least three replicate measurements.

[3] = Refolding of SDS-denatured protein by dilution or removal of SDS, monitored by DNSA fluorescence
Protocol: Monitoring refolding of BCA and BCA-Ac18 was performed as follows. The proteins (10 micomolar) were denatured in 10 mM SDS for 24 h. […] Refolding was initiated by dilution of an aliquot of the denatured sample to a final concentration of protein of 200 nM, with varying concentrations of SDS in the buffer. Immediately prior to the measurement, an aliquot of renaturing protein was mixed with an equal aliquot of DNSA. The rate constants for renaturation were determined by fitting the data to FU=FUmax(1-e^−kt)+FUmin. The refolding experiments at 37° C. were performed similarly.
The kinetics of refolding were determined as follows. The rates of refolding of BCA and BCA-Ac18 from the fully denatured states (in 10 mM SDS) were measured by dilution of the solutions into buffers containing concentrations of SDS from 0.1 to 2 mM, using the fluorescence of DNSA as a marker for the appearance of the folded state. […] As in denaturation studies, an aliquot of solution of the protein and SDS was mixed with an equal aliquot of solution of DNSA with the same amount of SDS immediately prior to the measurement to eliminate the possibility of DNSA influencing refolding kinetics. The buffer also contained 100 micromolar ZnSO4 to ensure that the folded protein could incorporate a Zn(II) cofactor.
The raw data emphasize the decrease in the yield of folded protein with increasing concentration of SDS. […] The half-lives (t1/2) for renaturation were determined, where possible, by fitting the data to FU=FUmax(1-exp(−t/t1/2))+FUmin; the fits are shown (solid lines). The tables provide data for refolding in 0.1 and 0.4 mM SDS as well as for concentrations on the graphs for comparison. […] The error bars represent the difference between the average and the largest and smallest values measured from at least three replicate measurements.

[4] = Refolding after 1 week incubation at intermediate SDS concentrations (aggregation test)
Protocol: Aggregation was tested by renaturing the proteins from a denatured state at 10 mM SDS to 0.1 mM SDS, but through an incubation step at intermediate concentrations of SDS, instead of renaturing by rapid dilution from 10 mM SDS to 0.1 mM SDS directly (i.e., 10 mM SDS→2.5 mM SDS→0.1 mM SDS instead of 10 mM SDS→0.1 mM SDS). For incubation, concentrations of SDS were chosen in which aggregation was believed to occur on a similar or shorter time scale as refolding. The protein-SDS complex was diluted from 10 mM SDS to 2.5-0.7 mM SDS, the proteins were incubated for 1 week at those concentrations, and the samples further diluted to 0.1 mM SDS to initiate fast refolding.
The fluorescence signal from DNSA was normalized to that of refolded protein by rapid dilution from 10 to 0.1 mM SDS.

[5] = Net charge of protein (capillary electrophoresis, charge ladder)
Protocol: BCA-Ac18 was synthesized by reacting the lysine residues of BCA with acetic anhydride in 100 mM HEPES buffer, pH 8.2. The N-terminus of BCA was acetylated posttranslationally. The final product contained ˜90% of BCA-Ac18 and 10% of BCA-Ac17, as determined by peak areas in an electropherogram from separation by capillary electrophoresis. The net charge of BCA in Tris-Gly buffer was about −3, and the net charge of BCA-Ac18 was about −19. It is believed that the difference in charge between BCA and BCA-Ac18 was less than 18 full units of charge due to charge regulation-adjustment of protonation states of other ionizable groups on the protein to counteract the increasing electrostatic potential on its surface.
For any charge ladder of BCA, as the number of modifications (n) increases, the total charge on the protein becomes more negative, and the surface of the protein becomes more hydrophobic due to conversion of NH3^+ groups to NHCOR groups. Native BCA has a charge of ˜−2.9 at pH 8. The charge on the early rungs of the ladder increased linearly with the number of acylations; each rung adds an additional charge of ˜−0.9. Therefore, for example, BCA-Ac8 has a charge of ˜−10. The later rungs of the ladder may differ by <0.9 units of charge. Using the Linderstrom-Lang model of cooperativity in proton binding, the charge on BCA-Ac18 was calculated to be −19. The mobility of a given rung of BCA-Acn may have nearly the same mobility as the corresponding rung of BCA-Hexn. Thus, the charges of the BCA-Hexn may be indistinguishable from those of BCA-Acn for a given rung number. (Small deviations in mobility between later rungs of the two ladders may be due either to a change in charge or a change in drag between the two ladders. It can be assumed that any differences in the mobilities are due to additional drag from the hexanoyl groups relative to the acetyl groups.

[6] = Critical micelle concentration by isothermal titration calorimetry; details: 25 mM Tris-192 mM Gly, pH 8.4 buffer
Protocol: Critical micelle concentration of SDS in Tris-Gly buffer was determined as follows. The critical micelle concentration (CMC) of SDS in 25 mM Tris-192 mM Gly, pH 8.4 buffer was 4.3 mM, as measured by isothermal titration calorimetry. In this example, the kinetics of denaturation and renaturation of proteins in concentrations of SDS below the CMC were studied. The difference in kinetics of denaturation of the two proteins may also occur in concentrations of SDS above the CMC.

Compound: BCA-Acn: charge ladder of BCA prepared with acetic anhydride
b coefficient of fit ΔG‡=a+bn+cn^2 [1]: 0.50±0.01 kcal/mol of protein
effects of charge on denaturation with SDS relative to effects of hydrophobicity ([1]; model of charge ladder data): ~5 fold
Chydro (hydrophobic contribution to ΔΔG‡) [1]: 0.085 kcal/mol

Compound: BCA-Hexn: charge ladder of BCA prepared with hexanoic anhydride
b coefficient of fit ΔG‡=a+bn+cn^2 [1]: 0.33±0.01 kcal/mol of protein
Chydro (hydrophobic contribution to ΔΔG‡) [1]: 0.26 kcal/mol

Compound: BCA-Ac18: charge-modified derivative of BCA having all 18 lysine groups acetylated
t1/2 for denaturation ([2]; 4 mM SDS, Tris-Gly buffer): 30 h
difference in denaturation time, BCA-Ac18 vs BCA (factor) ([2]; 4 mM and 10 mM SDS): ~10^4
t1/2 for denaturation ([2]; 10 mM SDS, Tris-Gly buffer): 2.67 h
difference in kinetics of denaturation of BCA and BCA-Ac18 (factor) ([2]; SDS at and above 2.5 mM): 10^1-10^4
denaturation in low concentrations of SDS ([2]; SDS below 2 mM, long (~1 month) periods of time): no denaturation was observed
concentration of SDS at which the protein denatures ([2]; Tris-Gly buffer, CMC 4.3 mM): ≥ 2500 µM
change in rates of denaturation with SDS, BCA vs peracetylated BCA ([2]; change in charge of the protein by a factor of 5): −3 orders of magnitude
difference in activation energy for denaturation, BCA-Ac18 vs BCA ([2]; from the factor of about 10^4 in rates): 5 kcal/mol
concentration of SDS at which no refolded protein was observed ([3]; dilution from 10 mM SDS): ≥ 1600 µM
rate of refolding relative to BCA ([3]; solutions with the same concentration of SDS): faster than refolding of BCA
range of SDS concentrations in which protein neither refolds nor unfolds at an observable rate (window) ([3]; time scales of a month): 1.6 to 2 mM
refolding rate (given as time) after denaturation with SDS ([3]; upon complete removal of the SDS): 21 ± 2 min
yield of refolded protein after incubation, relative to BCA ([4]; 1 week incubation at intermediate SDS, then 0.1 mM SDS): higher than the yields of BCA
t1/2 for refolding ([4]; denatured in 10 mM SDS, incubated 1 week at intermediate SDS, diluted into 0.1 mM SDS): 0.292 ± 0.0233 h
net charge ([5]; Tris-Gly buffer): about −19

Compound: BCA-Ac8: rung of the acetyl charge ladder of BCA with 8 acetylated lysines (regioisomers)
charge of rung from number of acylations ([5]; each rung adds ~−0.9): ~−10

critical micelle concentration (CMC) [6]: 4.3 mM
Compound: CCCCCCCCCCCCOS(=O)(=O)[O-].[Na+] [SDS, sodium dodecyl sulfate]
